Measurements as given in patent US20220348877A1, “GENERATION OF QUIESCENT CARDIAC FIBROBLASTS FROM HUMAN INDUCED PLURIPOTENT STEM CELLS FOR IN VITRO MODELING OF CARDIAC FIBROSIS” (The Board of Trustees of the Leland Stanford Junior …, priority 2019, published 2022).

Assays:
human iPSC-CFs = assay: In vitro wound-healing assay, iPSC-CFs; assay type: cell-based; settings: 25 ng/ml, 24-hour observation
Procedure: In vitro wound-healing assay. The migration of human iPSC-CFs and primary CFs was determined using a Cytoselect™ 24-Well Wound Healing Assay Kit (CBA-120, Cell Biolabs). Briefly, after confluent monolayers of CFs were formed, cells were synchronized in a low serum medium (0.5% FBS) for 24 hrs. After the wound-generating scaffold was removed from each well, cells were washed in PBS to remove residual cells in the wounded area. Cells were treated with vehicle or PDGF-BB (25 ng/ml), and images were captured using a light microscope in identical areas at baseline, 12 hrs, and 24 hrs post-treatment. The cell-free areas at each time point were measured by Image-Pro Plus (version 6.0, Media Cybernetics). For quantification purposes, the wound area generated at 0 hr was set as S0, the uncovered areas captured at 12 hrs, and 24 hrs were recorded as Si (i=12 or 24). The wound closure rate was then calculated by the following equation: wound closure rate

primary CFs = assay: In vitro wound-healing assay, primary CFs; assay type: cell-based, human; settings: 25 ng/ml, 24-hour observation
Procedure: Human primary skin, cardiac, lung, bladder fibroblast, and brain pericyte cultures. Human primary cardiac fibroblasts were isolated and cultured as follows: a piece of fresh right atrial biopsy was weighed, minced into small pieces (1-2 mm^3), and digested in 6-well peri-dishes as described. Human primary cardiac fibroblasts were grown and maintained in a fibroblast growth medium (C-23025, Promocell) supplemented with 1% penicillin-streptomycin (15140-122, Gibco) in a humidified atmosphere (95% air, 5% CO2) at 37° C. The medium was renewed every 2-3 days. Cells were passaged using standard trypsinization techniques at 80-90% confluency. The same protocol was also used to isolate and culture fibroblasts from human skin and lung tissues. Primary bladder fibroblasts were purchased from Lifeline (FC-0050) and maintained in the same fibroblast growth medium. […]
In vitro wound-healing assay. The migration of human iPSC-CFs and primary CFs was determined using a Cytoselect™ 24-Well Wound Healing Assay Kit (CBA-120, Cell Biolabs). […] The cell-free areas at each time point were measured by Image-Pro Plus (version 6.0, Media Cybernetics). For quantification purposes, the wound area generated at 0 hr was set as S0, the uncovered areas captured at 12 hrs, and 24 hrs were recorded as Si (i=12 or 24). The wound closure rate was then calculated by the following equation: wound closure rate

B1: platelet derived growth factor-BB: platelet derived growth factor-BB, migration stimulus (protein, UniProt P01127 82-190, looked up)
Platelet-derived growth …: SLGSLTIAEPAMIAECKTRTEVFEISRRLIDRTNANFLVWPPCVEVQRCSGCCNNRNVQCRPTQVQLRPVQVRKIEIVRKKPIFKKATVTLEDHLACKCETVAAARPVT
cell migration (wound closure) (human iPSC-CFs): induced cell migration | cell migration (wound closure) (primary CFs): induced cell migration
